{"source": "paper PMC4284093", "about": "(Journal of molecular biology, 2014)", "molecules": {"B1": {"name": "TE (terminal thioesterase domain of 6-deoxyerythronolide B synthase) (domain or fragment, Saccharopolyspora erythraea)", "chain": "QLDSGTPAREASSALRDGYRQAGVSGRVRSYLDLLAGLSDFREHFDGSDGFSLDLVDMADGPGEVTVICCAGTAAISGPHEFTRLAGALRGIAPVRAVPQPGYEEGEPLPSSMAAVAAVQADAVIRTQGDKPFVVAGHSAGALMAYALATELLDRGHPPRGVVLIDVYPPGHQDAMNAWLEELTATLFDRETVRMDDTRLTALGAYDRLTGQWRPRETGLPTLLVSAGEPMGPWPDDSWKPTWPFEHDTVAVPGDHFTMVQEHADAIARHIDAWLGGGNS"}}, "key": {"[1]": {"target": "DEBS3 (6-deoxyerythronolide B synthase 3; modules 5 and 6 and the TE domain) (Saccharopolyspora erythraea) (UniProt Q03133)", "assay": "SEC-SAXS"}, "[2]": {"target": "KSAT3+KR3 (module 3 of 6-deoxyerythronolide B synthase without the ACP domain) (Saccharopolyspora erythraea)", "assay": "SEC"}, "[3]": {"target": "KSAT3+KR3 (module 3 of 6-deoxyerythronolide B synthase without the ACP domain) (Saccharopolyspora erythraea)", "assay": "SEC-SAXS"}, "[4]": {"target": "M3+TE (module 3 of 6-deoxyerythronolide B synthase fused to the TE domain) (Saccharopolyspora erythraea)", "assay": "SEC-SAXS"}, "[5]": {"target": "the molecule itself", "assay": "SEC-SAXS"}}, "data": [{"molecule": "DEBS3 (6-deoxyerythronolide B synthase 3; modules 5 and 6 and the TE domain), Q03133 1-3172", "values": [{"measurement": "stoichiometry N", "setting": "[1]", "value": 2}]}, {"molecule": "KSAT3+KR3 (module 3 of 6-deoxyerythronolide B synthase without the ACP domain) (domain or fragment)", "values": [{"measurement": "stoichiometry N", "setting": "[2]", "value": 2}, {"measurement": "stoichiometry N", "setting": "[3]", "value": 2}]}, {"molecule": "M3+TE (module 3 of 6-deoxyerythronolide B synthase fused to the TE domain) (enzyme)", "values": [{"measurement": "stoichiometry N", "setting": "[4]", "value": 2}]}, {"molecule": "B1", "values": [{"measurement": "stoichiometry N", "setting": "[5]", "value": 2}]}]}
